Source: paper PMC12866175 (European journal of nuclear medicine and molecular imaging, 2021)

Assay: Radiation dosimetry and clearance kinetics from biodistribution data
Type: in vivo, BALB/c mice

For C[C@@H](O)[C@H](NC(=O)[C@@H]1CSSC[C@H](NC(=O)[C@@H](Cc2ccccc2)NC(=O)CN2CCN(CC(=O)O)CCN(CC(=O)O)CCN(CC(=O)O)CC2)C(=O)N[C@@H](Cc2ccc(O)cc2)C(=O)N[C@H](Cc2c[nH]c3ccccc23)C(=O)N[C@@H](CCCCN)C(=O)N[C@@H]([C@@H](C)O)C(=O)N1)C(=O)O [[^225Ac]Ac-DOTA-TATE, metal not drawn], the Absorbed dose/injected activity (^213Bi, Blood) was 0.0000 Gy/kBq, the “Accumulated activity/organ, A~” value (^213Bi, Blood) was 0.2345 kBq×h and the “Decay rate constant, λeff” value (^213Bi, Blood) was 0.011 h⁻¹. The “Initial activity/organ, A○” value (^213Bi, Blood) was 0.0042 kBq, the Absorbed dose/injected activity (^213Bi, Bone) was 0.0000 Gy/kBq and the “Accumulated activity/organ, A~” value (^213Bi, Bone) was 0.9591 kBq×h. For the same compound, the “Decay rate constant, λeff” value (^213Bi, Bone) was 0.0070 h⁻¹, the “Initial activity/organ, A○” value (^213Bi, Bone) was 0.0125 kBq and the Absorbed dose/injected activity (^213Bi, Brain) was 0.0000 Gy/kBq. For the same compound, the “Accumulated activity/organ, A~” value (^213Bi, Brain) was 0.4653 kBq×h, the “Decay rate constant, λeff” value (^213Bi, Brain) was 0.0080 h⁻¹ and the “Initial activity/organ, A○” value (^213Bi, Brain) was 0.0066 kBq. For the same compound, the Absorbed dose/injected activity (^213Bi, Heart) was 0.0000 Gy/kBq, the “Accumulated activity/organ, A~” value (^213Bi, Heart) was 0.5789 kBq×h and the “Decay rate constant, λeff” value (^213Bi, Heart) was 0.0030 h⁻¹. For the same compound, the “Initial activity/organ, A○” value (^213Bi, Heart) was 0.0053 kBq, the Absorbed dose/injected activity (^213Bi, Intestine) was 0.0000 Gy/kBq and the “Accumulated activity/organ, A~” value (^213Bi, Intestine) was 3.6681 kBq×h. For the same compound, the “Decay rate constant, λeff” value (^213Bi, Intestine) was 0.0210 h⁻¹, the “Initial activity/organ, A○” value (^213Bi, Intestine) was 0.1340 kBq and the Absorbed dose/injected activity (^213Bi, Kidney) was 0.0000 Gy/kBq. The “Accumulated activity/organ, A~” value (^213Bi, Kidney) was 7.7700 kBq×h, the “Decay rate constant, λeff” value (^213Bi, Kidney) was 0.0250 h⁻¹ and the “Initial activity/organ, A○” value (^213Bi, Kidney) was 0.3639 kBq. For the same compound, the Absorbed dose/injected activity (^213Bi, Liver) was 0.0000 Gy/kBq, the “Accumulated activity/organ, A~” value (^213Bi, Liver) was 28.7854 kBq×h and the “Decay rate constant, λeff” value (^213Bi, Liver) was -0.0073 h⁻¹. For the same compound, the “Initial activity/organ, A○” value (^213Bi, Liver) was 0.0948 kBq, the Absorbed dose/injected activity (^213Bi, Lung) was 0.0000 Gy/kBq and the “Accumulated activity/organ, A~” value (^213Bi, Lung) was 0.9636 kBq×h. For the same compound, the “Decay rate constant, λeff” value (^213Bi, Lung) was 0.0170 h⁻¹, the “Initial activity/organ, A○” value (^213Bi, Lung) was 0.0270 kBq and the Absorbed dose/injected activity (^213Bi, Muscle) was 0.0000 Gy/kBq. The “Accumulated activity/organ, A~” value (^213Bi, Muscle) was 0.3058 kBq×h, the “Decay rate constant, λeff” value (^213Bi, Muscle) was 0.0050 h⁻¹ and the “Initial activity/organ, A○” value (^213Bi, Muscle) was 0.0034 kBq. The Absorbed dose/injected activity (^213Bi, Pancreas) was 0.0000 Gy/kBq, the “Accumulated activity/organ, A~” value (^213Bi, Pancreas) was 0.5253 kBq×h and the “Decay rate constant, λeff” value (^213Bi, Pancreas) was 0.0140 h⁻¹. The “Initial activity/organ, A○” value (^213Bi, Pancreas) was 0.0119 kBq, the Absorbed dose/injected activity (^213Bi, Salivary) was 0.000 Gy/kBq and the “Accumulated activity/organ, A~” value (^213Bi, Salivary) was 0.6047 kBq×h. For the same compound, the “Decay rate constant, λeff” value (^213Bi, Salivary) was 0.0030 h⁻¹, the “Initial activity/organ, A○” value (^213Bi, Salivary) was 0.0056 kBq and the Absorbed dose/injected activity (^213Bi, Skin) was 0.000 Gy/kBq. For the same compound, the “Accumulated activity/organ, A~” value (^213Bi, Skin) was 0.5575 kBq×h, the “Decay rate constant, λeff” value (^213Bi, Skin) was 0.0040 h⁻¹ and the “Initial activity/organ, A○” value (^213Bi, Skin) was 0.0056 kBq. For the same compound, the Absorbed dose/injected activity (^213Bi, Spleen) was 0.0000 Gy/kBq, the “Accumulated activity/organ, A~” value (^213Bi, Spleen) was 1.2470 kBq×h and the “Decay rate constant, λeff” value (^213Bi, Spleen) was -0.0024 h⁻¹. The “Initial activity/organ, A○” value (^213Bi, Spleen) was 0.0068 kBq, the Absorbed dose/injected activity (^213Bi, Stomach) was 0.0000 Gy/kBq and the “Accumulated activity/organ, A~” value (^213Bi, Stomach) was 2.4230 kBq×h. For the same compound, the “Decay rate constant, λeff” value (^213Bi, Stomach) was 0.0190 h⁻¹, the “Initial activity/organ, A○” value (^213Bi, Stomach) was 0.0777 kBq and the Absorbed dose/injected activity (^213Po, Blood) was 0.0000 Gy/kBq. The “Accumulated activity/organ, A~” value (^213Po, Blood) was 0.2345 kBq×h, the “Decay rate constant, λeff” value (^213Po, Blood) was 0.0110 h⁻¹ and the “Initial activity/organ, A○” value (^213Po, Blood) was 0.0042 kBq. For the same compound, the Absorbed dose/injected activity (^213Po, Bone) was 0.0004 Gy/kBq, the “Accumulated activity/organ, A~” value (^213Po, Bone) was 0.9591 kBq×h and the “Decay rate constant, λeff” value (^213Po, Bone) was 0.0070 h⁻¹. The “Initial activity/organ, A○” value (^213Po, Bone) was 0.0125 kBq, the Absorbed dose/injected activity (^213Po, Brain) was 0.0001 Gy/kBq and the “Accumulated activity/organ, A~” value (^213Po, Brain) was 0.4653 kBq×h. The “Decay rate constant, λeff” value (^213Po, Brain) was 0.0080 h⁻¹, the “Initial activity/organ, A○” value (^213Po, Brain) was 0.0066 kBq and the Absorbed dose/injected activity (^213Po, Heart) was 0.0002 Gy/kBq. For the same compound, the “Accumulated activity/organ, A~” value (^213Po, Heart) was 0.5789 kBq×h, the “Decay rate constant, λeff” value (^213Po, Heart) was 0.0030 h⁻¹ and the “Initial activity/organ, A○” value (^213Po, Heart) was 0.0053 kBq. The Absorbed dose/injected activity (^213Po, Intestine) was 0.0001 Gy/kBq, the “Accumulated activity/organ, A~” value (^213Po, Intestine) was 3.6681 kBq×h and the “Decay rate constant, λeff” value (^213Po, Intestine) was 0.0210 h⁻¹. The “Initial activity/organ, A○” value (^213Po, Intestine) was 0.1340 kBq, the Absorbed dose/injected activity (^213Po, Kidney) was 0.0015 Gy/kBq and the “Accumulated activity/organ, A~” value (^213Po, Kidney) was 7.7700 kBq×h. The “Decay rate constant, λeff” value (^213Po, Kidney) was 0.0250 h⁻¹, the “Initial activity/organ, A○” value (^213Po, Kidney) was 0.3639 kBq and the Absorbed dose/injected activity (^213Po, Liver) was 0.0016 Gy/kBq. For the same compound, the “Accumulated activity/organ, A~” value (^213Po, Liver) was 28.7854 kBq×h, the “Decay rate constant, λeff” value (^213Po, Liver) was -0.0073 h⁻¹ and the “Initial activity/organ, A○” value (^213Po, Liver) was 0.0948 kBq. For the same compound, the Absorbed dose/injected activity (^213Po, Lung) was 0.0002 Gy/kBq, the “Accumulated activity/organ, A~” value (^213Po, Lung) was 0.9636 kBq×h and the “Decay rate constant, λeff” value (^213Po, Lung) was 0.0170 h⁻¹. For the same compound, the “Initial activity/organ, A○” value (^213Po, Lung) was 0.0270 kBq, the Absorbed dose/injected activity (^213Po, Muscle) was 0.0001 Gy/kBq and the “Accumulated activity/organ, A~” value (^213Po, Muscle) was 0.3058 kBq×h. The “Decay rate constant, λeff” value (^213Po, Muscle) was 0.0050 h⁻¹, the “Initial activity/organ, A○” value (^213Po, Muscle) was 0.0034 kBq and the Absorbed dose/injected activity (^213Po, Pancreas) was 0.0002 Gy/kBq. For the same compound, the “Accumulated activity/organ, A~” value (^213Po, Pancreas) was 0.5253 kBq×h, the “Decay rate constant, λeff” value (^213Po, Pancreas) was 0.0140 h⁻¹ and the “Initial activity/organ, A○” value (^213Po, Pancreas) was 0.0119 kBq. The Absorbed dose/injected activity (^213Po, Salivary) was 0.0002 Gy/kBq, the “Accumulated activity/organ, A~” value (^213Po, Salivary) was 0.6047 kBq×h and the “Decay rate constant, λeff” value (^213Po, Salivary) was 0.0030 h⁻¹. For the same compound, the “Initial activity/organ, A○” value (^213Po, Salivary) was 0.0056 kBq, the Absorbed dose/injected activity (^213Po, Skin) was 0.0001 Gy/kBq and the “Accumulated activity/organ, A~” value (^213Po, Skin) was 0.5575 kBq×h. The “Decay rate constant, λeff” value (^213Po, Skin) was 0.0040 h⁻¹, the “Initial activity/organ, A○” value (^213Po, Skin) was 0.0056 kBq and the Absorbed dose/injected activity (^213Po, Spleen) was 0.0006 Gy/kBq. The “Accumulated activity/organ, A~” value (^213Po, Spleen) was 1.2470 kBq×h, the “Decay rate constant, λeff” value (^213Po, Spleen) was -0.0024 h⁻¹ and the “Initial activity/organ, A○” value (^213Po, Spleen) was 0.0068 kBq. The Absorbed dose/injected activity (^213Po, Stomach) was 0.0005 Gy/kBq, the “Accumulated activity/organ, A~” value (^213Po, Stomach) was 2.4230 kBq×h and the “Decay rate constant, λeff” value (^213Po, Stomach) was 0.0190 h⁻¹. For the same compound, the “Initial activity/organ, A○” value (^213Po, Stomach) was 0.0777 kBq, the Absorbed dose/injected activity (^217At, Blood) was 0.001 Gy/kBq and the “Accumulated activity/organ, A~” value (^217At, Blood) was 0.5594 kBq×h. For the same compound, the “Initial activity/organ, A○” value (^217At, Blood) was 0.0019 kBq, the Absorbed dose/injected activity (^217At, Bone) was 0.0003 Gy/kBq and the “Accumulated activity/organ, A~” value (^217At, Bone) was 1.0195 kBq×h. The “Decay rate constant, λeff” value (^217At, Bone) was 0.0100 h⁻¹, the “Initial activity/organ, A○” value (^217At, Bone) was 0.0170 kBq and the Absorbed dose/injected activity (^217At, Brain) was 0.0001 Gy/kBq. The “Accumulated activity/organ, A~” value (^217At, Brain) was 0.7934 kBq×h, the “Decay rate constant, λeff” value (^217At, Brain) was -0.0044 h⁻¹ and the “Initial activity/organ, A○” value (^217At, Brain) was 0.0036 kBq. The Absorbed dose/injected activity (^217At, Heart) was 0.00001 Gy/kBq, the “Accumulated activity/organ, A~” value (^217At, Heart) was 0.2102 kBq×h and the “Decay rate constant, λeff” value (^217At, Heart) was 0.0190 h⁻¹. For the same compound, the “Initial activity/organ, A○” value (^217At, Heart) was 0.0067 kBq, the Absorbed dose/injected activity (^217At, Intestine) was 0.0002 Gy/kBq and the “Accumulated activity/organ, A~” value (^217At, Intestine) was 7.2991 kBq×h. The “Decay rate constant, λeff” value (^217At, Intestine) was 0.0130 h⁻¹, the “Initial activity/organ, A○” value (^217At, Intestine) was 0.1532 kBq and the Absorbed dose/injected activity (^217At, Kidney) was 0.0021 Gy/kBq. For the same compound, the “Accumulated activity/organ, A~” value (^217At, Kidney) was 12.5136 kBq×h, the “Decay rate constant, λeff” value (^217At, Kidney) was 0.0190 h⁻¹ and the “Initial activity/organ, A○” value (^217At, Kidney) was 0.4011 kBq. The Absorbed dose/injected activity (^217At, Liver) was 0.0016 Gy/kBq, the “Accumulated activity/organ, A~” value (^217At, Liver) was 32.1637 kBq×h and the “Decay rate constant, λeff” value (^217At, Liver) was -0.0033 h⁻¹. For the same compound, the “Initial activity/organ, A○” value (^217At, Liver) was 0.1612 kBq, the “Accumulated activity/organ, A~” value (^217At, Lung) was 1.7734 kBq×h and the “Decay rate constant, λeff” value (^217At, Lung) was 0.0080 h⁻¹. The “Initial activity/organ, A○” value (^217At, Lung) was 0.251 kBq, the Absorbed dose/injected activity (^217At, Muscle) was 0.00000 Gy/kBq and the “Accumulated activity/organ, A~” value (^217At, Muscle) was 0.1848 kBq×h. The “Decay rate constant, λeff” value (^217At, Muscle) was 0.0170 h⁻¹.
